Experimental findings from patent US20250352667A1 are described below.

For test [1], the target named is KEAP1 (wild-type full-length), His-tagged (human) (UniProt Q14145). Put plainly: AlphaScreen; FLAG-NRF2 wt isoform 1 19.2 nM, His-KEAP1 150 nM; Rep 1; positive control for I86V.
Test [2] shares this target. As to the kind of experiment: AlphaScreen; FLAG-NRF2 wt isoform 1 19.2 nM, His-KEAP1 150 nM; Rep 1; positive control for Q75R. On the technique in general: Alpha assays give light when donor and acceptor beads are brought close together.
Test [3] shares this target. Put plainly: AlphaScreen; 1228.8 nM FLAG-NRF2, 150 nM His-KEAP1; Rep 1; control for I28V.
Test [4] has the same target. As to the kind of experiment: AlphaScreen; 76.8 nM FLAG-NRF2, 150 nM His-KEAP1; signal against NRF2 only; control for I28V.
The target is the same in test [5]. Put plainly: AlphaScreen; FLAG-NRF2 wt isoform 1 9.6 nM, His-KEAP1 150 nM; Rep 3; positive control for I86V.
The target is the same in test [6]. Put plainly: AlphaScreen; FLAG-NRF2 wt isoform 1 19.2 nM, His-KEAP1 150 nM; Repeat 2; positive control for Q75R.
Test [7] has the same target. Put plainly: AlphaScreen; mean over 9.6, 19.2 and 38.4 nM NRF2 wt isoform 1, KEAP1 150 nM; reference for I86V.
For test [8] the target is unchanged. As to the kind of experiment: AlphaScreen; 307.2 nM FLAG-NRF2, 150 nM His-KEAP1; Rep 2; control for I28V.
For test [9] the target is unchanged. Put plainly: AlphaScreen; 9.6 nM FLAG-NRF2, 150 nM His-KEAP1; signal against NRF2 only; control for I28V.
The target is the same in test [10]. As to the kind of experiment: AlphaScreen; NRF2 wt isoform 1 307.2 nM, KEAP1 150 nM; signal against NRF2-only control; control for Q75R.
Test [11] shares this target. As to the kind of experiment: AlphaScreen; 19.2 nM FLAG-NRF2, 150 nM His-KEAP1; Rep 2; control for I28V.
The target is the same in test [12]. Put plainly: AlphaScreen; 614.4 nM FLAG-NRF2, 150 nM His-KEAP1; signal against NRF2 only; control for I86V.
Test [13] has the same target. As to the kind of experiment: AlphaScreen; FLAG-NRF2 wt isoform 1 9.6 nM, His-KEAP1 150 nM; Rep 1; positive control for I86V.
For test [14] the target is unchanged. Put plainly: AlphaScreen; 76.8 nM FLAG-NRF2, 150 nM His-KEAP1; Rep 2; control for I28V.
Test [15] shares this target. Put plainly: AlphaScreen, all variants on one plate; optimal condition (19.2 nM NRF2), KEAP1 150 nM; the reference itself.
Test [16] shares this target. As to the kind of experiment: AlphaScreen; 19.2 nM FLAG-NRF2, 150 nM His-KEAP1; Rep 1.
Test [17] shares this target. Put plainly: AlphaScreen; mean over 9.6, 19.2 and 38.4 nM NRF2; 150 nM His-KEAP1; against wild-type NRF2 isoform 1.
For test [18] the target is unchanged. Put plainly: AlphaScreen; 38.4 nM FLAG-NRF2, 150 nM His-KEAP1 (same value as in Table 27).
For test [19] the target is unchanged. Put plainly: AlphaScreen; FLAG-NRF2 I86V 2.4 nM, His-KEAP1 150 nM; Rep 1.
The target is the same in test [20]. Put plainly: AlphaScreen; NRF2 I86V 9.6 nM, KEAP1 150 nM; signal against NRF2-only control.
Test [21] has the same target. As to the kind of experiment: AlphaScreen; FLAG-NRF2 I86V 76.8 nM, His-KEAP1 150 nM; Rep 3.
The target is the same in test [22]. Put plainly: AlphaScreen; NRF2 Q75R 4.8 nM, KEAP1 150 nM; signal against NRF2-only control.
For test [23] the target is unchanged. As to the kind of experiment: AlphaScreen; NRF2 Q75R 9.6 nM, KEAP1 150 nM; relative to wild-type NRF2 isoform 1 (100 %).
The target is the same in test [24]. Put plainly: AlphaScreen; FLAG-NRF2 Q75R 19.2 nM, His-KEAP1 150 nM; Rep 1.
Test [25] has the same target. Put plainly: AlphaScreen; FLAG-NRF2 Q75R 19.2 nM, His-KEAP1 150 nM; Repeat 2.
Test [26] shares this target. Put plainly: AlphaScreen; FLAG-NRF2 Q75R 2.4 nM, His-KEAP1 150 nM; Rep 1.
Test [27] shares this target. Put plainly: AlphaScreen; FLAG-NRF2 Q75R 19.2 nM, His-KEAP1 150 nM; Rep 2.

KEAP1 (wild-type full-length), His-tagged (human), sequence (Q14145 2-624 limits assumed): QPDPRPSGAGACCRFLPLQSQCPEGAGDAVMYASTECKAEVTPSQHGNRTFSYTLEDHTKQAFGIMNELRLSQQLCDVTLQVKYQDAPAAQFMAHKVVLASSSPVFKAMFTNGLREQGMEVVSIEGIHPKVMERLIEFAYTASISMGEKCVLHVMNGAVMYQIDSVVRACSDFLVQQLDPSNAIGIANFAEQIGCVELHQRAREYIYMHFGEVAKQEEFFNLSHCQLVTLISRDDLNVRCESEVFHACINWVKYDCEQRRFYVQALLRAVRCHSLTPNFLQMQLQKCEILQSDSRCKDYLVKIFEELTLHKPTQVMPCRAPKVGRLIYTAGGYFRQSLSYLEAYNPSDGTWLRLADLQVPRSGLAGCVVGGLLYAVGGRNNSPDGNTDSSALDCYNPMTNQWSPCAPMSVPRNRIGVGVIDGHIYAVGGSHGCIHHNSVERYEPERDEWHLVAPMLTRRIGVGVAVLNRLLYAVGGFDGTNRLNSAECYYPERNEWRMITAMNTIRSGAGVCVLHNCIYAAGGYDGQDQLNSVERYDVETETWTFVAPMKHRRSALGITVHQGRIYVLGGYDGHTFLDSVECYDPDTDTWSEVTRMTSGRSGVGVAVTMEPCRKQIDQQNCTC

B1: NRF2 isoform 1 (wild-type full-length), FLAG-tagged (protein)
chain: MMDLELPPPGLPSQQDMDLIDILWRQDIDLGVSREVFDFSQRRKEYELEKQKKLEKERQEQLQKEQEKAFFAQLQLDEETGEFLPIQPAQHIQSETSGSANYSQVAHIPKSDALYFDDCMQLLAQTFPFVDDNEVSSATFQSLVPDIPGHIESPVFIATNQAQSPETSVAQVAPVDLDGMQQDIEQVWEELLSIPELQCLNIENDKLVETTMVPSPEAKLTEVDNYHFYSSIPSMEKEVGNCSPHFLNAFEDSFSSILSTEDPNQLTVNSLNSDATVNTDFGDEFYSAFIAEPSISNSMPSPATLSHSLSELLNGPIDVSDLSLCKAFNQNHPESTAEFNDSDSGISLNTSPSVASPEHSVESSSYGDTLLGLSDSEVEELDSAPGSVKQNGPKTPVHSSGDMVQPLSPSQGQSTHVHDAQCENTPEKELPVSPGHRKTPFTKDKHSSRLEAHLTRDELRAKALHIPFPVEKIINLPVVDFNEMMSKEQFNEAQLALIRDIRRRGKNKVAAQNCRKRKLENIVELEQDLDHLKDEKEKLLKEKGENDKSLHLLKKQLSTLYLEVFSMLRDEDGKPYSPSEYSLQQTRDGNVFLVPKSKKPDVKKN
For the molecule B1, the A-counts (NRF2 plus KEAP1) in test [1] was 3300 A-counts; in test [2] it was 1360 A-counts; in test [5], 2410 A-counts; in test [6], 1480 A-counts; in test [13], 2640 A-counts. For the same molecule, the A-counts in test [3] was 1450 A-counts; in test [8], 1780 A-counts; in test [11], 2000 A-counts; in test [14] it was 1970 A-counts. In addition, the S/N stood at 2.7 in [4], 4.1 in test [9], 1.4 in test [10] and 1.1 in test [12]. This molecule also came in with an Average Binding in test [7] of 100%. In [15], this molecule came in with a % Disruption in Binding of 0%.

B2: NRF2 isoform 1 (I28V full-length), FLAG-tagged (protein)
chain: MMDLELPPPGLPSQQDMDLIDILWRQDVDLGVSREVFDFSQRRKEYELEKQKKLEKERQEQLQKEQEKAFFAQLQLDEETGEFLPIQPAQHIQSETSGSANYSQVAHIPKSDALYFDDCMQLLAQTFPFVDDNEVSSATFQSLVPDIPGHIESPVFIATNQAQSPETSVAQVAPVDLDGMQQDIEQVWEELLSIPELQCLNIENDKLVETTMVPSPEAKLTEVDNYHFYSSIPSMEKEVGNCSPHFLNAFEDSFSSILSTEDPNQLTVNSLNSDATVNTDFGDEFYSAFIAEPSISNSMPSPATLSHSLSELLNGPIDVSDLSLCKAFNQNHPESTAEFNDSDSGISLNTSPSVASPEHSVESSSYGDTLLGLSDSEVEELDSAPGSVKQNGPKTPVHSSGDMVQPLSPSQGQSTHVHDAQCENTPEKELPVSPGHRKTPFTKDKHSSRLEAHLTRDELRAKALHIPFPVEKIINLPVVDFNEMMSKEQFNEAQLALIRDIRRRGKNKVAAQNCRKRKLENIVELEQDLDHLKDEKEKLLKEKGENDKSLHLLKKQLSTLYLEVFSMLRDEDGKPYSPSEYSLQQTRDGNVFLVPKSKKPDVKKN
The molecule B2 had an A-counts in [16] of 1730 A-counts. Further, in [17], the Avg. Reduction in Binding came out at 30.2%. This molecule also yielded a S/N in test [18] of 2.7.

B3: NRF2 isoform 1 (I86V full-length), FLAG-tagged (protein)
chain: MMDLELPPPGLPSQQDMDLIDILWRQDIDLGVSREVFDFSQRRKEYELEKQKKLEKERQEQLQKEQEKAFFAQLQLDEETGEFLPVQPAQHIQSETSGSANYSQVAHIPKSDALYFDDCMQLLAQTFPFVDDNEVSSATFQSLVPDIPGHIESPVFIATNQAQSPETSVAQVAPVDLDGMQQDIEQVWEELLSIPELQCLNIENDKLVETTMVPSPEAKLTEVDNYHFYSSIPSMEKEVGNCSPHFLNAFEDSFSSILSTEDPNQLTVNSLNSDATVNTDFGDEFYSAFIAEPSISNSMPSPATLSHSLSELLNGPIDVSDLSLCKAFNQNHPESTAEFNDSDSGISLNTSPSVASPEHSVESSSYGDTLLGLSDSEVEELDSAPGSVKQNGPKTPVHSSGDMVQPLSPSQGQSTHVHDAQCENTPEKELPVSPGHRKTPFTKDKHSSRLEAHLTRDELRAKALHIPFPVEKIINLPVVDFNEMMSKEQFNEAQLALIRDIRRRGKNKVAAQNCRKRKLENIVELEQDLDHLKDEKEKLLKEKGENDKSLHLLKKQLSTLYLEVFSMLRDEDGKPYSPSEYSLQQTRDGNVFLVPKSKKPDVKKN
Regarding B3, the A-counts (NRF2 plus KEAP1) in test [19] amounted to 1730 A-counts; in test [21], 2560 A-counts. The molecule also displayed a S/N in test [20] of 3.6.

B4: NRF2 isoform 1 (Q75R full-length), FLAG-tagged (protein)
chain: MMDLELPPPGLPSQQDMDLIDILWRQDIDLGVSREVFDFSQRRKEYELEKQKKLEKERQEQLQKEQEKAFFAQLRLDEETGEFLPIQPAQHIQSETSGSANYSQVAHIPKSDALYFDDCMQLLAQTFPFVDDNEVSSATFQSLVPDIPGHIESPVFIATNQAQSPETSVAQVAPVDLDGMQQDIEQVWEELLSIPELQCLNIENDKLVETTMVPSPEAKLTEVDNYHFYSSIPSMEKEVGNCSPHFLNAFEDSFSSILSTEDPNQLTVNSLNSDATVNTDFGDEFYSAFIAEPSISNSMPSPATLSHSLSELLNGPIDVSDLSLCKAFNQNHPESTAEFNDSDSGISLNTSPSVASPEHSVESSSYGDTLLGLSDSEVEELDSAPGSVKQNGPKTPVHSSGDMVQPLSPSQGQSTHVHDAQCENTPEKELPVSPGHRKTPFTKDKHSSRLEAHLTRDELRAKALHIPFPVEKIINLPVVDFNEMMSKEQFNEAQLALIRDIRRRGKNKVAAQNCRKRKLENIVELEQDLDHLKDEKEKLLKEKGENDKSLHLLKKQLSTLYLEVFSMLRDEDGKPYSPSEYSLQQTRDGNVFLVPKSKKPDVKKN
Take B4: in test [22], the S/N is 2.3. The molecule further had a Binding Percentage in test [23] of 72.4%. The A-counts (NRF2 plus KEAP1) in [24] was determined as 1300 A-counts; in test [25], 1280 A-counts; in [26], 588 A-counts; in [27], 1280 A-counts.
